Laboratory results from PMC6286387, “Physical and thermodynamic characterization of the rice gibberellin receptor/gibberellin/DELLA protein complex” (Scientific Reports, 2018).

Tests used:
SLR1(M28-A112), Trx-free [1] = biological target: T1, SLR1(M28-A112), Trx-free (rice (Oryza sativa), UniProt Q7G7J6 28-112); experiment: ITC; 10 μl aliquants of 400 μM OsGID1/GA3 into 1.4482 ml of 50 μM SLR1 variant, 30 °C, 20 mM sodium phosphate (pH 7.5), 150 mM NaCl, 2.0 mM β-ME, 0.1 mM GA3; settings: both partners purified
T1 construct: DELLA protein SLR1 of rice (Oryza sativa), residues M28-A112; 13C/15N-labelled for the NMR spectra; also called SLR(M28-A112); source: E. coli, purified (HiTrap Chelating, Superdex 200; thrombin, HiTrap Chelating, Superdex 75); not shown: Trx, N-terminal, cleaved; His6, N-terminal, cleaved
T1 sequence (looked up): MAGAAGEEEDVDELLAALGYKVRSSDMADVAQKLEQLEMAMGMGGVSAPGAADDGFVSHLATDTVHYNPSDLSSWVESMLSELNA

SLR1(M28-A112), Trx-free [2] = biological target: T1, SLR1(M28-A112), Trx-free; experiment: SAXS; Trx-free proteins, about 3.0 mg/ml, 20 mM sodium phosphate (pH 7.5), 150 mM NaCl, 2.0 mM β-ME, 0.1 mM GA3, 25 °C; mass from I(0), Guinier and Kratky plots; settings: both partners purified
[3] = biological target: the molecule itself; experiment: as above
[4] = biological target: SLR1(M1-E104), Trx-free (rice (Oryza sativa)) (UniProt Q7G7J6); experiment: ITC; 10 μl aliquants of 400 μM OsGID1/GA3 into 1.4482 ml of 50 μM SLR1 variant, 30 °C, 20 mM sodium phosphate (pH 7.5), 150 mM NaCl, 2.0 mM β-ME, 0.1 mM GA3
SLR1(M1-H327) = biological target: T2, SLR1(M1-H327) (rice (Oryza sativa), UniProt Q7G7J6 1-327); experiment: as above; settings: both partners purified
T2 construct: DELLA protein SLR1 of rice (Oryza sativa), residues M1-H327; Named without Trx in the ITC experiments; removal of the tag is told in general in the methods; also called SLR(M1-H327); source: E. coli, purified (HiTrap Chelating, Superdex 200; thrombin, HiTrap Chelating, Superdex 75); not shown: Trx, N-terminal, cleaved; His6, N-terminal, cleaved
T2 sequence (looked up): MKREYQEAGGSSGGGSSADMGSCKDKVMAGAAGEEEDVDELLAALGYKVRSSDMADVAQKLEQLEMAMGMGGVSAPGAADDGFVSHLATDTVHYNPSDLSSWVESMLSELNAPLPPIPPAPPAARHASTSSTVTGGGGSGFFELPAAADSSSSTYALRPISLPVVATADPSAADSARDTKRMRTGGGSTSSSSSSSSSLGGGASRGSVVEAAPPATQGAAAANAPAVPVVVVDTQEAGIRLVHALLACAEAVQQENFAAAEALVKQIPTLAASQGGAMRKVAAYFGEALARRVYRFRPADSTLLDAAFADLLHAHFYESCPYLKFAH

SLR1(M28-A112), Trx-free [5] = biological target: T1, SLR1(M28-A112), Trx-free; experiment: as above; settings: both partners purified; remark: listed apart in the source
[6] = biological target: T3, SLR1(M28-A112) ΔSPACE(G69-F83) (rice (Oryza sativa), UniProt Q7G7J6 28-112, ΔSPACE(G69-F83)); experiment: as above; settings: both partners purified
T3 construct: DELLA protein SLR1 of rice (Oryza sativa), residues M28-A112 with G69-F83 deleted; Named without Trx in the ITC experiments; removal of the tag is told in general in the methods; also called SLR(M28-A112)ΔSPACE; source: E. coli, purified (HiTrap Chelating, Superdex 200; thrombin, HiTrap Chelating, Superdex 75); not shown: Trx, N-terminal, cleaved; His6, N-terminal, cleaved
T3 sequence (looked up): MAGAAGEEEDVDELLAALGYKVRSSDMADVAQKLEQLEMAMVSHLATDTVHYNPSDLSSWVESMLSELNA

SLR1(M1-A172) = biological target: T4, SLR1(M1-A172) (rice (Oryza sativa), UniProt Q7G7J6 1-172); experiment: as above; settings: both partners purified
T4 construct: DELLA protein SLR1 of rice (Oryza sativa), residues M1-A172; Named without Trx in the ITC experiments; removal of the tag is told in general in the methods; also called SLR(M1-A172); source: E. coli, purified (HiTrap Chelating, Superdex 200; thrombin, HiTrap Chelating, Superdex 75); not shown: Trx, N-terminal, cleaved; His6, N-terminal, cleaved
T4 sequence (looked up): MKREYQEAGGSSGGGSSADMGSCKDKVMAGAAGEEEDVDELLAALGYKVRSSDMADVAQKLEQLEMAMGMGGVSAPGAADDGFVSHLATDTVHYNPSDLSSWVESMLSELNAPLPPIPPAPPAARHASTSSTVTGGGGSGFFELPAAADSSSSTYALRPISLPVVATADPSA

B1: OsGID1 (rice gibberellin receptor GID1), Trx-free, used as the OsGID1/GA3 complex (receptor, rice (Oryza sativa), UniProt Q6L545 1-354, looked up)
chain: MAGSDEVNRNECKTVVPLHTWVLISNFKLSYNILRRADGTFERDLGEYLDRRVPANARPLEGVSSFDHIIDQSVGLEVRIYRAAAEGDAEEGAAAVTRPILEFLTDAPAAEPFPVIIFFHGGSFVHSSASSTIYDSLCRRFVKLSKGVVVSVNYRRAPEHRYPCAYDDGWTALKWVMSQPFMRSGGDAQARVFLSGDSSGGNIAHHVAVRAADEGVKVCGNILLNAMFGGTERTESERRLDGKYFVTLQDRDWYWKAYLPEDADRDHPACNPFGPNGRRLGGLPFAKSLIIVSGLDLTCDRQLAYADALREDGHHVKVVQCENATVGFYLLPNTVHYHEVMEEISDFLNANLYY
notes: Gibberellin receptor GID1 of rice (Oryza sativa); theoretical MW of the dimer printed as 79.2 kDa; The printed mass (39.6 kDa a monomer) fits the whole protein; source: recombinant, purified
In the case of B1, the dH (SLR1(M28-A112), Trx-free [1]) is reported as -8.44 kcal/mol, the “stoichiometry N” value (SLR1(M28-A112), Trx-free [1]) is reported as 0.92 and the “stoichiometry N” value (SLR1(M28-A112), Trx-free [2]) is reported as 1. The “stoichiometry N” value [3] was 2, the Ka [4] was 11000 M⁻¹ and the dH [4] was -8.4 kcal/mol. The stoichiometry N [4] was 1, the dH (SLR1(M1-H327)) was -7.1 kcal/mol and the “stoichiometry N” value (SLR1(M1-H327)) was 1.01. For the same binder, the dH (SLR1(M28-A112), Trx-free [5]) was -6.9 kcal/mol, the “stoichiometry N” value (SLR1(M28-A112), Trx-free [5]) was 1.06 and the dH [6] was -8.3 kcal/mol. For the same binder, the “stoichiometry N” value [6] was 0.5, the dH (SLR1(M1-A172)) was -6.8 kcal/mol and the “stoichiometry N” value (SLR1(M1-A172)) was 1.06.
